Experimental data published in patent US20180155434A1 (UNIVERSITY OF TOYAMA, published 2018).
Substitutions are numbered along the chain they refer to. Names and notes keep the numbering of the source.

T1: mouse IL-5Rα on Y16 cells (mouse, UniProt P21183 18-415)
T1 construct: whole, on cells; also called IL-5Rα chain; mouse IL-5Rα-expressing cell Y16
T1 sequence (looked up): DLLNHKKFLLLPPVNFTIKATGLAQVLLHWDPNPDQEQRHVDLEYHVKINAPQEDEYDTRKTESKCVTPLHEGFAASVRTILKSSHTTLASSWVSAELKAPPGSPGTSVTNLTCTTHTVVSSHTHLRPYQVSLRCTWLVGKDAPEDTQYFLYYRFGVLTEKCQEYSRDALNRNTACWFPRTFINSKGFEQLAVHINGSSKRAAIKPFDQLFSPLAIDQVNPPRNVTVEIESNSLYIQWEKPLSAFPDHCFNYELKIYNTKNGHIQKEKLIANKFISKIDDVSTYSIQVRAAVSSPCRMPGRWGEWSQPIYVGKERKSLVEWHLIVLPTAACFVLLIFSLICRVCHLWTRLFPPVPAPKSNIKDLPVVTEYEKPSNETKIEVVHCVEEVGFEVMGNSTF

B1: H7 hIgG1 (DF) (H7-1) (antibody, V domains shown)
VH: EVQLQQSGAELGKPGTSVKLSCKVSGYNIKNTYIHWVNQRPGKGLEWIGRIDPANGNPIYAEKFKNKATLTADTSSNTAYMQLSQLKSDDTAIYFCAMHRGHSMGPGPYVMDAWGQGASVTVSS
VL: DIQMTQSPASLSASLGETVTIECRTSEDIYNGLAWYQQKPGKSPQLLIYNANSLHTGVPSRFSGSGSGTQYSLKINSLQSEDVASYCCQQYSNYPFTFGSGTKLEIK
notes: also called core fucose-deficient H7 chimeric antibody; Potelligent-type H7 chimeric antibody
B2: H7 hIgG1 (N297A) (H7-3) (antibody, V domains shown)
VH: B1 VH
VL: B1 VL
notes: Rat H7 variable regions on a human IgG1 constant region with N297A (EU index), so it lacks the N-linked sugar chain; Human kappa light chain constant region; also called N-linked sugar chain-deficient H7 chimeric antibody
B3: H7 (CS) hIgG1 (DF) (H7-2) (antibody, V domains shown)
VH: B1 VH
VL: B1 VL with C87S
notes: Human IgG1 and human kappa constant regions, no core fucose (FUT8-/- CHO); also called Cys substitution variant H7-2; H7 (CS) altered form
B4: H7 (CS) hIgG1 (N297A) (H7-4) (antibody, V domains shown)
VH: B1 VH
VL: B1 VL with C87S
notes: H7 VL with Cys 87 replaced by Ser. Human IgG1 constant region with N297A (EU index) and human kappa constant region; also called H7 (CS) altered form
B5: rtDNP-1 hIgG1 (DF) antibody (KM8808) (antibody, V domains shown)
VH: EVQLQESGPGLVKPSQSLSLTCSVTGYSITSGYWNWIRKFPGNKMEWIGYISYSGSTYYNPSLKSRISITRDTSKNQFFLQLNSVTTEDTATYYCARWGVRHYFDYWGQGVMATVSS
VL: DVVMTQTPVSLPVSLGGQASISCRSSQSLANSYGNTYLSWYLQKPGQSPQLLIYRVSNTFSGVPDRFSGSGSGTDFTLKISRVEPEDLGDYYCLQGTHQPYTFGAGTKLELK
notes: Isotype control; Rat anti-DNP variable regions on a human IgG1 constant region, no core fucose; also called core fucose-deficient anti-dinitrophenol (DNP) rat/human chimeric antibody
B6: rtDNP-1 hIgG1 (N297A) antibody (KM6161) (antibody, V domains shown)
VH: B5 VH
VL: B5 VL
notes: Isotype control; Rat anti-DNP variable regions on a human IgG1 constant region with N297A; also called N-linked sugar chain-deficient anti-DNP rat/human chimeric antibody

Molecular target: T1, mouse IL-5Rα on Y16 cells
Assay: flow cytometry on Y16 cells expressing mouse IL-5R, detection with goat F(ab')2 anti-human IgG PE, Geomean
Procedure: The chimeric antibodies prepared in Example 8 were evaluated for their antigen binding activity using a mouse-derived cell line Y16 expressing IL-5R. The Y16 cells were washed with SM (staining medium containing 2% FCS, 0.05% NaN₃, and 1 mM EDTA in PBS). Then, Mouse BD Fc Block (manufactured by Becton, Dickinson and Company) was added thereto at a concentration of 5 μg/mL, and the mixture was left standing at 4° C. for 30 min. The cells were inoculated at a cell number of 1×10⁵ cells/well to a 96-well U-bottom plate, and each chimeric antibody adjusted to a final concentration of 10000, 2500, 625, 156, 39, 10, 2.4, or 0.6 ng/mL was added thereto, followed by reaction at 4° C. for 60 min. The rat/human chimeric control antibodies used were rtDNP-1 hIgG1 (DF) antibody (KM8808) and rtDNP-1 hIgG1 (N297A) antibody (KM6161). The nucleotide sequences and amino acid sequences of the variable regions of each isotype control antibody are shown in SEQ ID NOs: 29 to 34. After washing of the cells with SM, Goat F(ab′)₂ Anti-Human IgG PE (γ chain specific) (manufactured by Southern Biotech) diluted 500-fold with SM was added thereto, followed by reaction at 4° C. for 60 min. After washing of the cells with SM, the cells were resuspended in 50 μL of SM. Fluorescence intensity was measured by FCM (flow cytometer FACS Canto II (manufactured by Becton, Dickinson and Company)). The data was analyzed using FlowJo 7.65 (manufactured by Tomy Digital Biology Co., Ltd.) to calculate a Geomean value at each concentration.

Binder	EC50 (read off the curve) [µg/mL]	binding result
B1	~0.06	
B2	~0.06	
B3	~0.04	
B4	~0.04	
B5		no binding (tested: 10 µg/mL)
B6		no binding (tested: 10 µg/mL)
